We go through 5 molecules from paper PMC5614548, “Effects of isoleucine 135 side chain length on the cofactor donor-acceptor distance within F420H2:NADP^+ oxidoreductase: A kinetic analysis^” (Biochemistry and Biophysics Reports, 2016).

Residue numbers refer to the chain shown, from its start. Names and notes keep the numbering of the source. Like-named read-outs stand apart in the source and are kept apart here.

Data set [1] addresses Fno (F420H2:NADP+ oxidoreductase) (Archaeoglobus fulgidus, UniProt O29370, I135A). The data set can be described thus: tryptophan fluorescence titration, fit with Hill coefficient. Format: binding. From the text:
(§1) tryptophan fluorescence titration, fit with Hill coefficient on Fno (F420H2:NADP+ oxidoreductase)

In data set [2] the target is Fno (F420H2:NADP+ oxidoreductase) (Archaeoglobus fulgidus, UniProt O29370, I135V). The data set is described as above. In kind it is binding.
From the text: as §1

The target in data set [3] is Fno (F420H2:NADP+ oxidoreductase) (Archaeoglobus fulgidus, UniProt O29370, I135G). The data set is described as above. In kind it is binding.
Sequence of Fno (F420H2:NADP+ oxidoreductase) (Archaeoglobus fulgidus, UniProt O29370, I135G) (O29370 whole entry I135G, one chain of several): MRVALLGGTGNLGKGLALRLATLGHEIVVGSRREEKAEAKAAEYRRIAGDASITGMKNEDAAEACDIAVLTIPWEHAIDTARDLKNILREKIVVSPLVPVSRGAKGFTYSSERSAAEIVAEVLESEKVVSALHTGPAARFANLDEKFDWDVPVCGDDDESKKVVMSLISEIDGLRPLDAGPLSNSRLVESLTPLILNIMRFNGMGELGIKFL
From the text: as §1

Substrate in data set [4]: O=c1nc2n(C[C@H](O)[C@H](O)[C@H](O)CO)c3cc(O)ccc3cc-2c(=O)[nH]1
The data set can be described thus: purified protein. Format: biochemical, Archaeoglobus fulgidus. To be noted: 600 µM NADPH, 50 mM MES/NaOH pH 6.5, 22 °C.

Substrate in data set [5]: NC(=O)C1=CN([C@@H]2O[C@H](COP(=O)(O)OP(=O)(O)OC[C@H]3O[C@@H](n4cnc5c(N)ncnc54)[C@H](OP(=O)(O)O)[C@@H]3O)[C@@H](O)[C@H]2O)C=CC1
The data set can be described thus: purified protein. In kind it is biochemical, Archaeoglobus fulgidus. Conditions: 25 µM FO, 50 mM MES/NaOH pH 6.5, 22 °C, phase 1 of biphasic fit, negative cooperativity.

Sequence of Fno (F420H2:NADP+ oxidoreductase) (Archaeoglobus fulgidus, UniProt O29370, I135A) (O29370 whole entry I135A, one chain of several): as the sequence (O29370 whole entry I135G, one chain of several) above, with G135A counted along it

As for `NC(=O)C1=CN([C@@H]2O[C@H](COP(=O)(O)OP(=O)(O)OC[C@H]3O[C@@H](n4cnc5c(N)ncnc54)[C@H](OP(=O)(O)O)[C@@H]3O)[C@@H](O)[C@H]2O)C=CC1` [NADPH], the Kd came out at 6.7 ± 0.7 nM in data set [1] (read-out: Kd^NADPH), 7.4 ± 1.1 nM in data set [2] (read-out: Kd^NADPH) and 1.5 ± 0.1 nM in data set [3] (read-out: Kd^NADPH).

For the molecule `O=c1nc2n(C[C@H](O)[C@H](O)[C@H](O)CO)c3cc(O)ccc3cc-2c(=O)[nH]1` [FO], the Kd turned out to be 5.6 ± 0.2 nM in data set [1] (read-out: Kd^FO), 7.5 ± 0.9 nM in data set [2] (read-out: Kd^FO) and 6.9 ± 0.3 nM in data set [3] (read-out: Kd^FO).

B1: Fno (F420H2:NADP+ oxidoreductase) (Archaeoglobus fulgidus DSM 4304; I135V) (protein)
chain: MRVALLGGTGNLGKGLALRLATLGHEIVVGSRREEKAEAKAAEYRRIAGDASITGMKNEDAAEACDIAVLTIPWEHAIDTARDLKNILREKIVVSPLVPVSRGAKGFTYSSERSAAEIVAEVLESEKVVSALHTVPAARFANLDEKFDWDVPVCGDDDESKKVVMSLISEIDGLRPLDAGPLSNSRLVESLTPLILNIMRFNGMGELGIKFL
For B1, in data set [4], the Km was determined as 3.7 ± 0.4 µM, the kcat was found to be 1.8 ± 0.1 s⁻¹ and the catalytic efficiency (kcat/Km) is 490000 ± 55000 M⁻¹ s⁻¹. For the same molecule, in data set [5], the Km was determined as 0.7 ± 0.1 µM, the kcat turned out to be 1.5 ± 0.09 s⁻¹ and the kcat/Km is 2.1e+06 ± 340000 M⁻¹ s⁻¹.

B2: Fno (F420H2:NADP+ oxidoreductase) (Archaeoglobus fulgidus DSM 4304; I135A) (protein)
chain: B1 chain with V135A
B2: in data set [4], the Km was 3.6 ± 0.5 µM, the kcat amounted to 1.6 ± 0.1 s⁻¹ and the kcat/Km turned out to be 450000 ± 66000 M⁻¹ s⁻¹.

B3: Fno (F420H2:NADP+ oxidoreductase) (Archaeoglobus fulgidus DSM 4304; I135G) (protein)
chain: B1 chain with V135G
For B3, in data set [4], the Km amounted to 3.6 ± 0.4 µM, the turnover number (kcat) came to 0.7 s⁻¹ and the catalytic efficiency (kcat/Km) was 200000 M⁻¹ s⁻¹.

The term Kd denotes the constant that tells how readily two partners part at equilibrium. In general, Km refers to the concentration of substrate that gives half-maximal velocity. Broadly, the kcat is the maximal rate divided by the concentration of active sites. A word on the kcat/Km: it is the turnover number divided by the Michaelis constant.
